Laboratory results reported in article PMC7563236.

Target: His6-Ku70-tRFP (human) (UniProt P12956)
Assay: SDS-PAGE without heat denaturation, fluorescence in the gel; samples not denatured at 94 °C; bands of His6-Ku70-tRFP seen by tRFP fluorescence

stoichiometry N: 2
Substance: His6-Ku70-tRFP (from UniProt P12956 1-609) (natural protein)
